Data on 94 variants can be found in the supplement of paper PMC10567573.

First the molecules themselves.
B1: RAB11B (parent)
chain: AVPTDEARAFAEKNNLSFIETSAL
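Also: lentivirally expressed fusions sorted by FACS into six bins by GFP to DsRed ratio, PSI derived from sequencing read proportions per bin multiplied by bin number.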

In the data set the parent is B1. The data set can be described thus: protein stability index of a GFP-peptide fusion (GPS, HEK-293T) (PSI 1-6); higher = more stable. The settings on record: c terminus: a fixed tail appended.
Take AVPTDEARACAEKNNLSFIETSAL: the protein stability index worked out at 3.1.

AVPTDEARADAEKNNLSFIETSAL: the protein stability index came out at 4.06.

With AVPTDEARAGAEKNNLSFIETSAL, the protein stability index was 3.12.

Regarding AVPTDEARASAEKNNLSFIETSAL, the protein stability index turned out to be 3.28.

In the case of AVPTDEARANAEKNNLSFIETSAL, the protein stability index was determined as 3.25.

Consider AVPTDEARAIAEKNNLSFIETSAL, for which the protein stability index was determined as 3.33.

Turning to AVPTDETRAFAEKNNLSFIETSAL, the protein stability index was 3.17.

On to AVPTDEDRAFAEKNNLSFIETSAL, for which the protein stability index stood at 4.09.

Take AVPTDECRAFAEKNNLSFIETSAL: the protein stability index came out at 2.47.

Take AVPTDENRAFAEKNNLSFIETSAL: the protein stability index is 3.1.

AVPTDESRAFAEKNNLSFIETSAL: the protein stability index was found to be 2.79.

Consider AVPTDEYRAFAEKNNLSFIETSAL, for which the protein stability index amounted to 2.94.

With AVPTDEFRAFAEKNNLSFIETSAL, the protein stability index was 1.98.

For the variant AVPTDEKRAFAEKNNLSFIETSAL, the protein stability index was 2.5.

Take AVPTDEWRAFAEKNNLSFIETSAL: the protein stability index amounted to 2.58.

For the variant AVPTDEIRAFAEKNNLSFIETSAL, the protein stability index stood at 2.39.

In the case of AVPTDERRAFAEKNNLSFIETSAL, the protein stability index turned out to be 2.6.

AVPTDEARAFAEKNNLSCIETSAL: the protein stability index was 4.48.

Turning to AVPTDEARAFAEKNNLSDIETSAL, the protein stability index was 5.17.

As to AVPTDEARAFAEKNNLSGIETSAL, the protein stability index was 4.47.

Regarding AVPTDEARAFAEKNNLSYIETSAL, the protein stability index is 2.97.

Consider AVPTDEARAFAEKNNLSVIETSAL, for which the protein stability index was 4.71.

For the variant AVPTDEARAFAEKNNLSHIETSAL, the protein stability index was 4.51.

Consider AVPTDEARAFAEKNNLSNIETSAL, for which the protein stability index amounted to 4.95.

As to AVPTDEARAFAEKNNLSTIETSAL, the protein stability index is 4.97.

As to AVPTDEARAFAEKNNSSFIETSAL, the protein stability index came to 4.37.

Regarding AVPTDEARAFAEKNNFSFIETSAL, the protein stability index worked out at 3.36.

Turning to AVPTDEARAFAEKNNHSFIETSAL, the protein stability index was 4.06.

Take AVPTDEARAFAEKNNTSFIETSAL: the protein stability index is 4.57.

Consider AVPTDEARAFAEKNNESFIETSAL, for which the protein stability index is 5.02.

As for AVPTDEARAFAEKNNVSFIETSAL, the protein stability index worked out at 4.29.

On to AVPTDEARAFAEKNNCSFIETSAL, for which the protein stability index turned out to be 4.1.

For the variant AVPTDEARAFAEKNNNSFIETSAL, the protein stability index was determined as 4.25.

In the case of AVPTDEARAFAEKNNRSFIETSAL, the protein stability index worked out at 4.42.

AVPTDEARAFAEKNNDSFIETSAL: the protein stability index stood at 4.52.

AVPTDEARAFAEKNNYSFIETSAL: the protein stability index is 3.18.

Consider FVPTDEARAFAEKNNLSFIETSAL, for which the protein stability index turned out to be 2.66.

As for YVPTDEARAFAEKNNLSFIETSAL, the protein stability index was 2.69.

Turning to EVPTDEARAFAEKNNLSFIETSAL, the protein stability index was determined as 3.65.

As to KVPTDEARAFAEKNNLSFIETSAL, the protein stability index amounted to 2.57.

For AVPTDEARAFAEKNNLSFICTSAL, the protein stability index was 2.28.

With AVPTDEARAFAEKNNLSFIQTSAL, the protein stability index worked out at 3.35.

On to AVPTDEARAFAEKNNLSFIPTSAL, for which the protein stability index was determined as 3.17.

In the case of AVPTDEARAFAEKNNLSFIGTSAL, the protein stability index came out at 2.76.

AVPTDEARAFAEKNNLSFITTSAL: the protein stability index came to 2.44.

In the case of AVPTDEARAFAEKNNLSFIKTSAL, the protein stability index came to 3.13.

With AVPTDEARAFAEKNNLSFINTSAL, the protein stability index worked out at 1.74.

As to AVPTDEARAFAEKNNLSFIMTSAL, the protein stability index was determined as 2.05.

Regarding AVPTDEARAFAEKNNLSFIHTSAL, the protein stability index turned out to be 2.36.

On to AVPTDEARAFAEKNNLSFIWTSAL, for which the protein stability index was found to be 1.32.

Regarding AVPTDEARAFAEKNNLSFIVTSAL, the protein stability index worked out at 1.95.

Turning to AVPTDEARAFAEKNNLSFIETSAH, the protein stability index is 4.29.

Turning to AVPTDEARAFAEKNNLSFIETSAR, the protein stability index was 2.8.

Turning to AVPTDEARAFAEKNNLSFIETSAP, the protein stability index came to 4.55.

With AVPTDEARAFAEKNNLSFIETSAA, the protein stability index worked out at 3.49.

With AVPTDEARAFAEKNNLSFIETSAT, the protein stability index came to 3.55.

As to AVPTDEARAFAEKNNLSFIETSAQ, the protein stability index is 3.98.

In the case of AVPTDEARAFAEKNNLSFIETSAD, the protein stability index turned out to be 5.12.

Take AVPTDEARAFAEKNNLSFIETSAE: the protein stability index amounted to 4.74.

On to AVPTDEARAFAEFNNLSFIETSAL, for which the protein stability index turned out to be 2.49.

Consider AVPTDEARAFAENNNLSFIETSAL, for which the protein stability index was 1.59.

For the variant AVPTDEARAFAESNNLSFIETSAL, the protein stability index stood at 2.48.

On to AVPTDEARAFAEINNLSFIETSAL, for which the protein stability index came to 2.09.

AVPTDEARAFAEPNNLSFIETSAL: the protein stability index is 2.12.

AVPTDEARAFAEENNLSFIETSAL: the protein stability index was 3.9.

For the variant AVPTDEARAFAERNNLSFIETSAL, the protein stability index worked out at 2.5.

As for AVPTDEARAFAEWNNLSFIETSAL, the protein stability index was 1.94.

Take AVPTDEARAFAEKNNLDFIETSAL: the protein stability index was 3.48.

As for AVPTDEARAFAEKNNLQFIETSAL, the protein stability index was determined as 4.23.

As to AVPTDEARAFAEKNNLKFIETSAL, the protein stability index is 3.79.

For AVPTDEARAFAEKNNLAFIETSAL, the protein stability index was determined as 2.78.

Consider AVPTDEARAFAEKNNLPFIETSAL, for which the protein stability index came to 4.19.

In the case of AVPTDEARAFAEKNNLLFIETSAL, the protein stability index turned out to be 2.77.

For AVPTDEARAFAEKNNLSFIETSRL, the protein stability index turned out to be 2.47.

Consider AVPTDEARAFAEKNNLSFIETSKL, for which the protein stability index came out at 3.28.

With AVPTDEARAFAEKNNLSFIETSQL, the protein stability index came out at 2.86.

Take AVPTDEARAFAEKNNLSFIETSVL: the protein stability index turned out to be 1.75.

As for AVPTDEARAFAEKNNLSFIETSPL, the protein stability index is 2.86.

For AVPTDEARAFAEKNNLSFIETSHL, the protein stability index was 2.62.

On to AVPTDEARAFAEKNNLSFIETSLL, for which the protein stability index is 2.4.

In the case of AVPTDEARAFAEKNNLSFIETSTL, the protein stability index amounted to 2.77.

Take AVPTDEARAFAEKNNLSFIETSIL: the protein stability index was found to be 2.09.

Consider AVPTDEARAFAEKNNLSFIETSYL, for which the protein stability index stood at 2.43.

Turning to AVPTDEARAFAEKNNLSFIETSFL, the protein stability index turned out to be 2.14.

AVPTDEARAFAEKNNLSFIETSNL: the protein stability index came to 2.88.

With AVPTDEARKFAEKNNLSFIETSAL, the protein stability index was 1.91.

As for AVPTDEARNFAEKNNLSFIETSAL, the protein stability index came to 2.52.

Turning to AVPTDEARHFAEKNNLSFIETSAL, the protein stability index came out at 2.07.

Regarding AVPTDEARIFAEKNNLSFIETSAL, the protein stability index amounted to 2.45.

For AVPTDEARMFAEKNNLSFIETSAL, the protein stability index was determined as 2.79.

As for AVPTDEARVFAEKNNLSFIETSAL, the protein stability index was 2.71.

With AVPTDEARYFAEKNNLSFIETSAL, the protein stability index was 2.48.

On to AVPTDEARFFAEKNNLSFIETSAL, for which the protein stability index is 2.63.

On to AVPTDEARDFAEKNNLSFIETSAL, for which the protein stability index was found to be 3.4.
